We go through one substance from PMC5404189.

The test concerns the target extracellular fibrinogen binding protein (Staphylococcus aureus) (UniProt A6QG59). In words: ELISA. In general terms: An ELISA detects its analyte on a solid surface through an enzyme-linked reagent.

Where only a bound is given, the exact number is not on record here.

Sequence of UniProt A6QG59 (A6QG59 30-165): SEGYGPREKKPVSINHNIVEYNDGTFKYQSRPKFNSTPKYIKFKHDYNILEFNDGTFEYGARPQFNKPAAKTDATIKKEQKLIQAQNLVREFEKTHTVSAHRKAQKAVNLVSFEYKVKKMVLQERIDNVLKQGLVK

Consider human complement C3 (natural protein), for which the reBC at 10% plasma was greater than 80%.
